Kd and koff data for two molecules are collected here from publication PMC8843702 (2022).

Bounds are passed on as bounds.

Common to all, as to assay: SPR
In general terms: In SPR one partner is held on a chip, and binding of the other changes the refractive index at the surface.

The target in assay [1] is T1, WT SARS-CoV-2 S RBD protein (SARS-CoV-2, UniProt P0DTC2).
The target in a further assay is SARS-CoV-2 S protein (SARS-CoV-2, UniProt P0DTC2).
The target in assay [2] is T1, WT SARS-CoV-2 S RBD protein. The source holds these as a separate data set.

B1: P5-22 (antibody, V domains shown)
VH: EVQLVESGGGLVKPGGSLRLSCAASGFTFRDYDIIWIRQAPGKGLEWVSYISRSGSTIYYSDSVRGRFTISRDNAKNSVYLQMNSLRAEDTAVYYCARDFGFEGPRMDVWGQGTTVTVSS
VL: DIQMTQSPSSLSASVGDRVTITCQASQDIKNYLNWYQQKPGKAPKLLIYDASNLETGVPSRFSGSGSGTDFTFTISSLQPEDIATYYCQQFDNLPITFGQGTRLEIK
With B1, the results for the Kd (in assay [1]; with SARS-CoV-2 S protein) were less than 4.59 pM and less than 3.34 pM, respectively. The molecule also had a koff in assay [2] of less than 1e-05 s⁻¹.

B2: polymeric P5-22 (antibody, V domains shown)
VH: B1 VH
VL: B1 VL
As for B2, the Kd in assay [1] is less than 0.498 pM. Besides, in assay [2], the koff was less than 1e-05 s⁻¹.

A word on the Kd: it is the free concentration of one partner at which half of the binding sites on the other are occupied at equilibrium, for simple one-to-one binding. A higher Kd goes with lower affinity. Broadly, the koff is the rate constant with which the complex falls apart. Read a low koff as a long-lived complex.
